Article PMC4325984 (The Biochemical journal, 2015)

Target: rabbit muscle ADP-G-actin (rabbit, UniProt P68135 1-377)
Test: ITC

Kd	dH	stoichiometry N	Binder
8.62 nM	-6720 ± 117 cal/mol	–	UNC-60B (natural protein) MASGVKVDPSCKNAYDLLHNKHQHSYIIFKIDKNDTAIVVEKVGEKNAPYAEFVEEMKKLVEDGKECRYAAVDVEVTVQRQGAEGTSTLNKVIFVQYCPDNAPVRRRMLYASSVRALKASLGLESLFQVQASEMSDLDEKSVKSDLMSNQRI
32.2 nM	-2300 ± 71.1 cal/mol	1	UNC-60A (natural protein) MSSGVMVDPDVQTSFQKLSEGRKEYRYIIFKIDENKVIVEAAVTQDQLGITGDDYDDSSKAAFDKFVEDVKSRTDNLTDCRYAVFDFKFTCSRVGAGTSKMDKIIFLQICPDGASIKKKMVYASSAAAIKTSLGTGKILQFQVSDESEMSHKELLNKLGEKYGDH
